According to patent US20220227830A1, “QD DOSING OF GIP RECEPTOR AGONIST PEPTIDE COMPOUNDS AND USES THEREOF” (Takeda Pharmaceutical Company Limited, priority 2020, published 2022):
Starred links: 1 amine or outer side, 2 acyl side, 3 side chain; linkers in the order of their positions; H or OH if unused. Non-standard residues stand in square brackets, D forms with d. Groups on a side chain read outwards from the residue. No end group written: not given here. *: point of attachment. C16 diacid = O=C(O)CCCCCCCCCCCCCCC(=O)*; C15 diacid = O=C(O)CCCCCCCCCCCCCC(=O)*; γGlu = O=C(O)[C@H](CCC(=O)[*:2])N[*:1]; NMeY = CN[C@@H](Cc1ccc(O)cc1)C(=O)O; Palmitoyl = CCCCCCCCCCCCCCCC(=O)*; AEEA = NCCOCCOCC(=O)O; Aib = CC(C)(N)C(=O)O; C16 = lipid C16

Legend:
[1] = molecular target: T1, full-length human GIPR with an N-terminal FLAG tag, overexpressed on HEK-293T cells (human, UniProt P48546 22-466); assay: cell-based or functional assay
T1 sequence (looked up): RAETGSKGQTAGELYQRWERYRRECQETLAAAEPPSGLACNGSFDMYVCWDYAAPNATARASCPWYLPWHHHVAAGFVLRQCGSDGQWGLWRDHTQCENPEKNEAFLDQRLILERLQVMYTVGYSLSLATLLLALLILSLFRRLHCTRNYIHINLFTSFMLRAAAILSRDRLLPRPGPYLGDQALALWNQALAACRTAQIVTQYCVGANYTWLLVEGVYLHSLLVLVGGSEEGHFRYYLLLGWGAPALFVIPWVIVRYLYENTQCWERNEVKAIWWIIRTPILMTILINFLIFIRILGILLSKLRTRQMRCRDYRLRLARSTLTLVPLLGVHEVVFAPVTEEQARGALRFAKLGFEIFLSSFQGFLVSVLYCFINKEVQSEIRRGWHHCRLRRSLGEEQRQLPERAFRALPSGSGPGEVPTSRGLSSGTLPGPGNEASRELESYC

[2] = molecular target: full-length human GLP-1R with an N-terminal FLAG tag, overexpressed on HEK-293T cells (human, UniProt P43220 24-463); assay: cell-based or functional assay

Row | Binder | Human GIPR cAMP, HEK293T EC50 [1] | Human GLP1R cAMP HEK293T EC50 [2]
1 | YXEGTFISDYSIAXDRXAQXDFVNWLLAQXG (N-terminal Me (Me-Tyr1); Aib at 2, 17, 20; Km = Lys(R) at 14, linker printed GS (read as G5 = GGGGG), lipid C15DA (C15 diacid); K(Ac) (N-epsilon-acetyllysine) at 30; C-terminal OH) [Compound 181] | 0.0004 nM | 162 nM
2 | Y[Aib]EGTFISDYSIALDR[Aib]AQ[Aib]K([AEEA-AEEA-γGlu-γGlu-C15 diacid])FVNWLLAQKG-OH (not fully specified (residue 1)) [Compound 188] | 0.0003 nM | 22.9 nM
3 | Me-Y[Aib]EGTFISDYSIAK([AEEA-AEEA-γGlu-C16 diacid])DRIAQ[Aib]NFVNWLLAQK [Compound 196] | 0.0002 nM | 692 nM
4 | Me-Y[Aib]EGTFISDYSIALDR[Aib]AQ[Aib]K([2OEG-γGlu-γGlu-C15 diacid])FVNWLLAQRG-OH [Compound 211] | 0.0002 nM | 174 nM
5 | Me-YGEGTFISDYSIALDR[Aib]AQ[Aib]K([2OEG-γGlu-γGlu-C15 diacid])FVNWLLAQKG-OH [Compound 206] | 0.0013 nM | 145 nM
6 | [NMeY][Aib]EGTFISDYSI[Aib]LDR[Aib]AQ[Aib]K([AEEA-AEEA-γGlu-γGlu-Palmitoyl])FVNWLLAQRG-OH (not fully specified (N-terminus)) [Compound 203] | 0.003 nM | 2.63 nM
7 | Me-YAEGTFISDYSIALDR[Aib]AQ[Aib]K([2OEG-γGlu-γGlu-C15 diacid])FVNWLLAQKG-OH [Compound 217] | 0.0002 nM | 4.9 nM
8 | Me-Y[Aib]EGTFISDYSIALDR[Aib]HQ[Aib]NFVNWK([γGlu-C16])LAQR-NH2 [Compound 190] | 0.0158 nM | 1000 nM
9 | Me-Y[Aib]EGTFISDYSIALDR[Aib]AQ[Aib]K([2OEG-γGlu-γGlu-C15 diacid])FVNWLLAQK-NH2 [Compound 210] | 0.0003 nM | 129 nM
10 | YXEGTFISDYSIXXDRXAQXNFVNWLLAQSPSSGAPPPS (N-terminal Me (Me-Tyr1); Aib at 2, 13, 17, 20; Km = Lys(R) at 14, linker printed GS (read as G5 = GGGGG), lipid C15DA (C15 diacid); C-terminal OH) [Compound 187] | 0.0002 nM | 51.3 nM
11 | YXEGTFISDYSIXXDRXAQXDFVNWLLAQSPG (N-terminal Me (Me-Tyr1); Aib at 2, 13, 17, 20; Km = Lys(R) at 14, linker printed GS (read as G5 = GGGGG), lipid C15DA (C15 diacid); C-terminal OH) [Compound 182] | 0.0002 nM | 155 nM
12 | YXEGTFISDYSIXLDRXAQXDFVNWLLAQSPG (N-terminal Me (Me-Tyr1); Aib at 2, 13, 20; Km = Lys(R) at 17, linker printed GS (read as G5 = GGGGG), lipid C15DA (C15 diacid); C-terminal OH) [Compound 186] | 0.0003 nM | 26.9 nM
13 | Me-Y[Aib]EGTFISDYSIALDR[Aib]AQ[Aib]K([G5gEgE-C15 diacid])FVNWLLAQKG-OH [Compound 215] | 0.0002 nM | 45.7 nM
14 | Me-Y[dA]EGTFISDYSIALDR[Aib]AQ[Aib]K([2OEG-γGlu-γGlu-C15 diacid])FVNWLLAQKG-OH [Compound 216] | 0.0003 nM | 34.7 nM
15 | Me-Y[Aib]EGTFISDYSIALDR[Aib]AQ[Aib]K([2OEG-C15 diacid])FVNWLLAQKG-OH [Compound 218] | 0.0006 nM | 89.1 nM
16 | Me-Y[Aib]EGTFISDYSIALDR[Aib]AQ[Aib]KFVNWLLAQKG-OH (not fully specified (residues 1, 21)) [Compound 212] | 0.0002 nM | 66.1 nM
17 | Me-Y[Aib]EGTFISDYSI[Aib]LDR[Aib]KQ[Aib]DFVNWLLAQSPG-OH (not fully specified (residues 1, 18); printed as Me-Tyr-Aib-Glu-Gly-Thr-Phe-Ile-Ser-Asp-Tyr-Ser-Ile-Aib-Leu-Asp-Arg-Aib-Lys(R)-Gln-Aib-Asp-Phe-Val-Asn-Trp-Leu-Leu-Ala-Gln-Ser-Pro-Gly-OH) [Compound 185] | 0.0004 nM | > 1000 nM
18 | Me-Y[Aib]EGTFISDYSIALDR[Aib]AQ[Aib]K([2OEG-γGlu-γGlu-C15 diacid])FVNWLLAQKG-NH2 [Compound 205] | 0.0002 nM | 13.5 nM
19 | Me-Y[Aib]EGTFISDYSIALDR[Aib]AQ[Aib]K([2OEG-γGlu-γGlu-γGlu-C15 diacid])FVNWLLAQKG-OH [Compound 201] | 0.0002 nM | 9.12 nM
20 | Me-Y[Aib]EGTFISDYSI[Aib]LDR[Aib]AQ[Aib]K([AEEA-AEEA-γGlu-γGlu-C15 diacid])FVNWLLAQSPG-OH [Compound 183] | 0.0005 nM | 89.1 nM
21 | Me-Y[Aib]EGTFISDYSIALDR[Aib]AQ[Aib]K([AEEA-AEEA-γGlu-γGlu-C15 diacid])FVNWLLAQSPG-OH [Compound 184] | 0.0003 nM | > 1000 nM
22 | YGEGTFISDYSIAK([AEEA-AEEA-γGlu-C16 diacid])DRIHQQNFVNWLLAQK [Compound 192] | 0.148 nM | 741 nM
23 | Me-Y[Aib]EGTFISDYSIALDR[Aib]AQ[Aib]K([2OEG-γGlu-C15 diacid])FVNWLLAQKG-OH [Compound 213] | 0.0003 nM | 17 nM
24 | Me-Y[Aib]EGTFISDYSIALDR[Aib]AQ[Aib]K([2OEG-γGlu-γGlu-C15 diacid])FVNWLLAQKPSSGAPPPS-NH2 [Compound 209] | 0.0003 nM | 479 nM
